Two substances from patent publication US20210206847A1 can be followed below.

The target of the test is biotin-labeled soluble FcRn protein (UniProt P55899). Put plainly: SPR; pH 6.0. For orientation: In SPR one partner is held on a chip, and binding of the other changes the refractive index at the surface.
Sequence of biotin-labeled soluble FcRn protein (P55899 24-297, chain 1 of 2): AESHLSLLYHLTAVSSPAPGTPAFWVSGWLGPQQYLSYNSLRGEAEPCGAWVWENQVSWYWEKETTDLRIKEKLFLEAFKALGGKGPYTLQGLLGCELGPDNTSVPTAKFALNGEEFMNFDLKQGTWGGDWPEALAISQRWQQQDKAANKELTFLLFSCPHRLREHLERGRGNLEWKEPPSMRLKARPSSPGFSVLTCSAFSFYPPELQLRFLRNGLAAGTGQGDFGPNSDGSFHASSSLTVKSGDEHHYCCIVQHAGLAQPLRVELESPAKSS
Sequence of biotin-labeled soluble FcRn protein (main, as listed by the source, chain 2 of 2): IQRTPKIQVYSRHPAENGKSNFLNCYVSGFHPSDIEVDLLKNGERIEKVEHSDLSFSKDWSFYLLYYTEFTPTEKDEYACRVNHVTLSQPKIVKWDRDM

For orientation: Kd means the free concentration of one partner at which half of the binding sites on the other are occupied at equilibrium, for simple one-to-one binding. A higher Kd goes with lower affinity. Substance 1-B10-9 (from UniProt P0DOX5 233-449) came in with a Kd of 119 nM.
Next, “novel IgG1 Fc monomer (sFc) (from UniProt P0DOX5 233-449)”: 106 nM.
